Measured values taken from patent US20150322137A1 (EVEC, published 2015).

B1: EV046130 (antibody, human IgG1, lambda, V domains shown)
VH: QVQLVESGGGVAQPGRSLRLSCAASGFTLSNYGMHWVRQAPGKGLEWVAVIWYDGRNKYYADSVKGRFTISRDDFKNTLDLQMNSLRAEDTAVYYCARDQHAGITMIEDWGQGTLVTVSS
VL: QSALTQPPSASGSPGQSVTISCTGTSSDVGYFKYVSWYQQHPGKAPKLLIYEVSKRPSGVPDRFSGSRSGNTASLTVSGLQADDEADYYCGSYAGNNNIIFGGGTKLTVLG
B2: EV046115b (antibody, human IgG1, lambda, V domains shown)
VH: QVQLVQSGAEVKKPGASVKVSCKASGYTFSVYGISWVRQAPGHGLEWMGWISAYNGDRGYAQKVQGRITMTTDTSASTAYMELRSLTSDDTAVYYCATTSSGVPGIYWGQGSLVTVSS
VL: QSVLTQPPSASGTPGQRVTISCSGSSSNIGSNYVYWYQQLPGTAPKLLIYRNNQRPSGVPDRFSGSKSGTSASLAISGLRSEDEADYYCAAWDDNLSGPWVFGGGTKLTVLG
B3: EV046124 (antibody, human IgG1, lambda, V domains shown)
VH: QVQLVQSGTELKKPGASVKVSCKASGYTFTDYSMHWLRQAPGESLEWMGWVNGGPLDTKYSPTFQDRVSFSRDVFATTAYMDLSSLGPEDTAVYYCARGWGITAYRGDAFDLWGQGTMVIVSS
VL: SFVLTQPPSVSVAPGKSARITCGASNIESKSVHWYQQKPGQAPVVVVYDDDDRPSGIPERFSGSNSGNTATLIINRVEVGDEADYYCQVWDSTSDMYVFGAGTKVTVLG
B4: EV046135 (antibody, human IgG1, lambda, V domains shown)
VH: QEQLVESGGDLVKPGGSLRITCAASGFTLSGYALVWVRQAPGRGLEWIADITASSTYINYAASVKGRFTISRDNAQSSLFLQMSSLRADDTGVYFCARLPHLPGFFDLWGRGTLVSVSS
VL: QSVLTQPPSVSGAPGQRVTISCTGNSSNIGAGYDVNWYQHLPGTAPKLLISVNTNRPSGVPDRFSGSMSGTSASLAITGLQAEDEADYYCQSYDRRLSGYVFGTGTKVTVLG
B5: EV046136 (antibody, human IgG1, kappa, V domains shown)
VH: QVQLVQSGAEMKKPGASVKVSCKASGYTFTDYFIHWVRQAPGQGLEWMGWVNPNSGATNYAQKFQGRVTMTGDTSLSAAYVDLSRLSSDDSAVYYCARDRGLGISSTRNDAFDIWGQGTTVTVSS
VL: DIQLTQSPSSLSASVGDRVTITCQPSQGIRNFLNWYQQKPGKAPNLLIYDASNLETGVASRFSGSGSGTHFTLTISSLQPEDIATYFCQQYHSLPLTFGGGTKVEIKR

How the values were obtained:
Assay in all cases: cell-based or functional assay
[1] = molecular target: T1, F protein of human metapneumovirus strain JPS02-76 (type B1), on infectious virus (human metapneumovirus, strain JPS02-76 …, UniProt Q6WB98 19-539)
[2] = molecular target: T2, F protein of human metapneumovirus strain JPS03-180 (type A1), on infectious virus (human metapneumovirus, strain JPS03-180 …)
[3] = molecular target: T1, F protein of human metapneumovirus …; remark: listed apart in the source
[4] = molecular target: T3, F protein of human metapneumovirus strain JPS03-178 (type A2), on infectious virus (human metapneumovirus, strain JPS03-178 …)
[5] = molecular target: T4, F protein of human metapneumovirus strain JPS05-21 (type B2), on infectious virus (human metapneumovirus, strain JPS05-21 …)
[6] = molecular target: T2, F protein of human metapneumovirus …; remark: listed apart in the source
[7] = molecular target: T3, F protein of human metapneumovirus …; remark: listed apart in the source
[8] = molecular target: T4, F protein of human metapneumovirus …; remark: listed apart in the source
[9] = molecular target: T2, F protein of human metapneumovirus …; remark: listed apart in the source
[10] = molecular target: T1, F protein of human metapneumovirus …; remark: listed apart in the source
[11] = molecular target: T3, F protein of human metapneumovirus …; remark: listed apart in the source
[12] = molecular target: T4, F protein of human metapneumovirus …; remark: listed apart in the source
[13] = molecular target: T2, F protein of human metapneumovirus …; remark: listed apart in the source
[14] = molecular target: T1, F protein of human metapneumovirus …; remark: listed apart in the source
[15] = molecular target: T4, F protein of human metapneumovirus …; remark: listed apart in the source

Row | Binder | IC50, cell-to-cell spread inhibitory activity (LLC-MK2 cells stably expressing TMPRSS2) [1] [µg/mL] | IC90, cell-to-cell spread inhibitory activity (LLC-MK2 cells stably expressing TMPRSS2) [1] [µg/mL] | IC60, neutralizing activity (hMPV infection of LLC-MK2 cells; GraphPad Prism 6) [2] [µg/mL] | IC60, neutralizing activity (hMPV infection of LLC-MK2 cells; GraphPad Prism 6) [3] [µg/mL] | IC60, neutralizing activity (hMPV infection of LLC-MK2 cells; GraphPad Prism 6) [4] [µg/mL] | IC60, neutralizing activity (hMPV infection of LLC-MK2 cells; GraphPad Prism 6) [5] [µg/mL] | IC50, neutralizing activity (hMPV infection of LLC-MK2 cells; GraphPad Prism 6) [6] [µg/mL] | IC50, neutralizing activity (hMPV infection of LLC-MK2 cells; GraphPad Prism 6) [7] [µg/mL] | IC50, neutralizing activity (hMPV infection of LLC-MK2 cells; GraphPad Prism 6) [8] [µg/mL] | IC90, neutralizing activity (hMPV infection of LLC-MK2 cells; GraphPad Prism 6) [9] [µg/mL] | IC90, neutralizing activity (hMPV infection of LLC-MK2 cells; GraphPad Prism 6) [10] [µg/mL] | IC90, neutralizing activity (hMPV infection of LLC-MK2 cells; GraphPad Prism 6) [11] [µg/mL] | IC90, neutralizing activity (hMPV infection of LLC-MK2 cells; GraphPad Prism 6) [12] [µg/mL] | IC50, neutralizing activity (hMPV infection of LLC-MK2 cells) [13] [µg/mL] | IC50, neutralizing activity (hMPV infection of LLC-MK2 cells) [14] [µg/mL] | IC50, neutralizing activity (hMPV infection of LLC-MK2 cells) [15] [µg/mL]
1 | B1 | 0.0349 | 0.147 | 0.254 | 0.354 | 2.01 | 0.132 | 0.22 | 1.95 | 0.105 | 0.486 | 0.714 | 2.3 | 0.358 | 0.21 | 0.23 | 0.089
2 | B2 | 0.135 | 0.617 | 0.4 | 0.376 | 2.71 | 0.133 | 0.322 | 2.28 | 0.108 | 1.03 | 2.3 | 5.75 | 0.345 | 0.29 | 0.27 | 0.099
3 | B3 | 0.0482 | 0.26 | 0.102 | 0.423 | 0.0539 | 0.305 | 0.0767 | 0.0407 | 0.255 | 0.365 | 0.952 | 0.188 | 0.677 | 0.07 | 0.29 | 0.24
4 | B4 | 0.0308 | 0.231 | 0.44 | 0.571 | 0.0471 | 0.268 | 0.348 | 0.0316 | 0.213 | 1.24 | 1.44 | 0.277 | 0.748 | 0.35 | 0.37 | 0.22
5 | B5 | 0.0522 | 0.212 | 0.358 | 0.419 | 0.358 | 0.67 | 0.318 | 0.318 | 0.537 | 0.605 | 0.895 | 0.605 | 1.78 | 0.29 | 0.31 | 0.46
